Data taken from publication doi:10.1101/2021.04.24.441265.

Molecular target: C/EBPβ bZIP domain (mouse, UniProt P28033 221-296)
Assay: fluorescence polarization

Chain of C/EBPβ bZIP domain (P28033 221-296): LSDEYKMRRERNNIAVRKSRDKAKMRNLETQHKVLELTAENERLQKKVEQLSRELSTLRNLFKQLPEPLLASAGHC

B1: FP_CREBmeth (half-CRE•C/EBP Il36A, methylated) (dsDNA)
DNA 1: CATCTTACGTCACCT
DNA 2: AGGTGACGTAAGATG
modifications: mC at strand 1 position 8 and strand 2 position 7 (CpG, both strands)
Kd: 100 ± 30 nM
